The results in this text go back to patent US12460006B2, “Antibodies against integrin alpha 11 beta 1” (Momenta Pharmaceuticals, Inc., priority 2019, dated 2025).

Assay [1] has as its system CHO cell lines expressing α11. As to the kind of experiment: Collagen gel contraction assay. Type of assay: cell-based, human. As to conditions: for Inhibition of CHO-K1 gel contraction: Yes/No; for inhibition of CHO-hu α11-mediated collagen gel contraction: vs untreated. Here is the method:
24-well plates were blocked with 2% BSA in PBS overnight at 37° C. The following day, the plates were washed 3 times with PBS before being used in the assay. Human CHO cell lines expressing α11 were harvested and resuspended at 1.25×10^6 in ExpiCHO Expression Medium (Gibco™ Cat #A2910002). The collagen gel solution was prepared by diluting 3 mg/mL stock collagen type I (Gibco™ Collagen I Rat Protein, Tail Cat #A1048301) to 1 mg/mL in the media containing the CHO cells. Sodium hydroxide was added to the solution to neutralize the pH and 400 μL of the collagen solution was added to each well of the 24-well plates. For the wells where the antibodies were included in the collagen gel solution, CHO cells were prepared at 2.5×10^6 and the antibodies were prepared at 2× final concentration in ExpiCHO media. The cells and antibodies were then combined 1:1 before the addition of the stock collagen type 1. The gels were allowed to polymerize for 60 minutes at 37° C. Antibodies were added to the ExpiCHO media, which was then layered on top of the polymerized gel (400 μL/well). The gels were incubated for 6 days at 37° C. before gel contraction was quantified. Images of each well were analyzed using Image J and gel contraction was determined as a percentage of the initial gel area.
Selected exemplary antibodies were tested for the ability to inhibit cell-mediated 3D gel contraction because this ability is directly linked to the functionality of the exemplary antibodies.

The next assay deals with T1, α11β1 I Domain (Homo sapiens, UniProt Q9UKX5).
T1 sequence (Q9UKX5 164-345 limits assumed): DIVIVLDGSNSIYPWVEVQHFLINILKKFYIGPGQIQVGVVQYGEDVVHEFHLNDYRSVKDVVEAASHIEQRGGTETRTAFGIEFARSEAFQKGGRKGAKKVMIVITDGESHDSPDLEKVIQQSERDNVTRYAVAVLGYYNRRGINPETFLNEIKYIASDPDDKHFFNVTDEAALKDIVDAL
The experiment in a line: SPR binding to α11β1 I Domain. As to conditions: SPR data. The procedure: The affinity of antibodies for human α11β1 was measured by surface plasmon resonance assay (SPR). Affinity was measured at pH 7.6 and 25° C. with a Biacore T200 instrument. Anti-HIS antibody was immobilized on the SPR sensor surface using EDC/NHS covalent attachment. HIS-tagged human α11β1 was captured on the sensor surface and a single-cycle kinetics assay was used. Increasing concentrations of test antibody were injected in series over the sensor-bound α11β1. Dissociation was monitored for 1000 seconds. A sensor surface with only anti-HIS antibody and a series of blank injections were used to double-reference subtract the data. A 1:1 Langmuir model was fit to the data to estimate the kinetic association and dissociation constants. The affinity (equilibrium dissociation constant) of the interaction was calculated by dividing the kinetic dissociation constant by the kinetic association constant. Between injection cycles α11β1 and bound antibody were removed with an injection of 10 mM glycine at pH 1.5.
The binding affinity of antibodies for the α11β1 Headpiece and α11β1 I Domain as measured by SPR is shown in FIG. 10A and FIG. 10B, respectively.

The subject of a further assay is A549 cells. As to the kind of experiment: Tumor xenograft model. Type of assay: in vivo, C.B-17 SCID mice. As to conditions: for Days to Volume Doubling (ave, 95% CI): intraperitoneal every 3 days, 7 doses. The procedure:
Fifty-six female C.B-17 SCID mice were inoculated with A549 cells (5×10^6 cells/mouse) subcutaneously in the flank. Once tumor volume reached ˜100 mm^3, animals were randomized amongst 7 groups of 8 mice each. Mice were then treated intraperitonealy every 3 days for a total of 7 doses with isotype controls or novel mAbs 79E3E3, 16E10 and 9G04 (2 and 20 mg/kg) or with docetaxel at 10 mg/kg every 4 days for a total of 6 doses. Tumor volumes and body weights were recorded twice a week with a gap of 2-3 days in between two measurements until any of the following conditions defined were observed: loss of 20% or more body weight; tumors that inhibit normal physiological function such as eating, drinking, and mobility; ulcerated tumors; tumor size greater than 2000 mm^3 and clinical observations of prostration, paralysis, seizures and hemorrhages.
In this example, studies were performed to determine if inhibition of α11β1 function with mAb results in xenograft growth inhibition. As shown in FIG. 16 and Table 4, blocking α11β1 on mouse CAFs impeded xenograft growth in SCID mice.

B1: 16G7: rabbit anti-α11β1 mAb; heavy chain SEQ ID NO: 159, light chain SEQ ID NO: 160 (antibody)
heavy: METGLRWLLLVAVFKGVQCQEQLVESGGDLVKPGASLTLTCTASGFSFNKNYWMCWVRQAPGKGLEWIGCIYNGDGNTYYASWVNGRFTISKTSSTTVTLQMTSLTVADTAIYFCARLLNMWGPGTLVTVSSGQPKAPSVFPLAPCCGDTPSSTVTLGCLVKGYLPEPVTVTWNSGTLTNGVRTFPSVRQSSGLYSLSSVVSVTSSSQPVTCNVAHPATNTKVDKTVAPSTCSKPMCPPPELPGGPSVFIFPPKPKDTLMISRTPEVTCVVVDVSQDDPEVQFTWYINNEQVRTARPPLREQQFNSTIRVVSTLPIAHQDWLRGKEFKCKVHNKALPAPIEKTISKARGQPLEPKVYTMGPPREELSSRSVSLTCMINGFYPSDISVEWEKNGKAEDNYKTTPTVLDSDGSYFLYSKLSVPTSEWQRGDVFTCSVMHEALHNHYTQKSISRSPGK
light: MDTRAPTQLLGLLLLWLPGARCADIVMTQTPASVEAAVGGTVTIKCQASESIGNALAWYQQKPGQPPKLLIYTAATLASGVPSRFSGSGSGTEFTLTISGVQCDDAATYYCQSYYFTSVSSYGNAFGGGTEVVVKGDPVAPTVLIFPPAADQVATGTVTIVCVANKYFPDVTVTWEVDGTTQTTGIENSKTPQNSADCTYNLSSTLTLTSTQYNSHKEYTCKVTQGTTSVVQSFNRGDC
Consider B1, for which the “Inhibition of CHO-K1 gel contraction” value in assay [1] is given as “No”.

B2: 9-E16: mouse anti-α11β1 mAb; VH SEQ ID NO: 111, VL SEQ ID NO: 112 (antibody, V domains shown)
VH: EVQLQQSGPELVKPGASVKISCKASGYTFTDYYMHWVKQKPGQGLEWIGEIYPGSGNPYYNEKFKGKATLTADKSSSSAYMQLSSLTSEDSAVYFCARTSYGRVGTGFAYWGQGTLVTVSA
VL: NFVMTQTPLSLPVSLGDQASISCRSSQSLLHSNGNTYLHWYLQKPGQSPKLLIYKVSNRFSGVPDRFSGSGSGTDFTLKINRVETEDLGIYFCSQSSHVPTFGAGTKLELK
For B2, the “inhibition of CHO-hu α11-mediated collagen gel contraction” value in assay [1] is recorded as “inhibited CHO-hu α11-mediated collagen gel contraction”.

B3: 9-G05: mouse anti-α11β1 mAb; VH SEQ ID NO: 103, VL SEQ ID NO: 104 (antibody, V domains shown)
VH: EVQLQQSGPELVKPGASVKIPCKASGYTFPDYNMDWVKQSHGKSLEWIGYINPDNGGTIYNQKFKGKATLTVDKSSSTAYMELRSLTSEDTAVYYCARLDSSGYGYYAMDYWGQGTSVTVSS
VL: DIVLTQSPASLAVSLGQRATISCRASESVDNYGISFMHWYQQKPGQPPKLLIYRASNLDSEIPARFSGSGSRTDFTLTIDPVETDDVATYYCQQSYKDPRTFGGGTKLEIK
With B3, the “binding to the I domain of α11β1” value in the assay with α11β1 I Domain is recorded as “do bind”. Besides, in assay [1], the “Inhibition of CHO-K1 gel contraction” value is recorded as “Yes” and the “inhibition of CHO-hu α11-mediated collagen gel contraction” value is “inhibited CHO-hu α11-mediated collagen gel contraction”.

B4: 8-I14: mouse anti-α11β1 mAb; VH SEQ ID NO: 109, VL SEQ ID NO: 110 (antibody, V domains shown)
VH: EVQLQQSGPELVKPGASVKKSCKASGYTFTDYYMHWVKQKPGQGLEWIGKIYPGSGNTHYNEKFKGKATLTADKSSSTAYMQLSSLTSEDSAVYFCATNYYGYRAMNYWGQGSSVTVSS
VL: DIHLTQSPSSLSASLGERISLTCRASQDIYISLNWFQQKPDGTIKLLIYGTSSLDSGVPKRFSGSRSGSDYSLTISSLESEDFADYYCLQYASSPYTFGGGTKLEIK
Regarding B4, in assay [1], the “Inhibition of CHO-K1 gel contraction” value was “No” and the “inhibition of CHO-hu α11-mediated collagen gel contraction” value was “inhibited CHO-hu α11-mediated collagen gel contraction”.

B5: 24E4G6: rat anti-α11β1 mAb; VH SEQ ID NO: 147, VL SEQ ID NO: 148 (antibody, V domains shown)
VH: MELELSLIFIFSLLKDVQCEVQLVESGGSLVQPGGSLKLSCVASGYTFSNYWMDWVRQSPGKSLEWIGEINTDGRRTNYAPSIKDRFTISRDNAKSTLYLQMSNVKSDDTAIYYCTILRVYPHYFDYWGQGVMVTVSS
VL: MMSPAQFLFLLMLWIQEARGDVVMTQTPPSLSVAIGQSVSISCKSSQSLVYSDGETYLHWFLQSPGRSPKRLIYHVSNLGSGVPDRFSGTGSLTDFTLRISRVEAEDLGVYYCAQTTHFPPTFGAGTKLELK
As to B5, the “Inhibition of CHO-K1 gel contraction” value in assay [1] is given as “Yes”.

B6: 9-B11: mouse anti-α11β1 mAb; VH SEQ ID NO: 115, VL SEQ ID NO: 116 (antibody, V domains shown)
VH: QVQLQQPGAELVRPGTSVKLSCKASGYTFTSYWMHWVQQRPGQGLEWIGVIDPSDSYTNYNQKFKGKATLTVDTSSSSAYMQLSSLTSEDSAVYYCARDDVAMDYWGQGTSVTVSS
VL: DIVVTQSPASLAVSLGQRATISCRASESVDSYGNSFIHWYQQKPGQPPKLLIYRASNLKSGIPARFSGSGSRTDFTLTINPVEADDVATYYCQQSNEDPYTFGGGTKLEIK
Regarding B6, the “Inhibition of CHO-K1 gel contraction” value in assay [1] is reported as “No”.

B7: 79E3E3: rat anti-α11β1 mAb; VH SEQ ID NO: 145, VL SEQ ID NO: 146 (antibody, V domains shown)
VH: MDWLWNLLFLMVVAQSAQAQIQLVQSGPEVKKPGESVKISCKASGYTFTDYAMNWVKQAPGNGLKWMGWINTQTGKPTYADDFKQRFVFSLETSARTTYLQINNLNIEDTATYFCTRLGTGNTKGFAYWGQGTLVTVSS
VL: MESQTHVLISLLLCVSGTCGDILINQSPASLTVSAGERVTMSCKSSQSLLYSENNQDYLAWYQQKPGQFPKLLIYGASNRHTGVPDRFTGSGSGTDFTLTISSVQAEDLADYYCEQTYRYPFTFGSGTKLEIK
Consider B7, for which, in the assay with α11β1 I Domain, the “binding to the I domain of α11β1” value was “do bind”. Also, in the assay with A549 cells (2mpk), the “Days to Volume Doubling (ave, 95% CI)” value is given as 8.5 (8.0, 9.0) Days. In the assay on A549 cells (20mpk), the “Days to Volume Doubling (ave, 95% CI)” value is listed as 8.5 (8.0, 9.0) Days. Besides, the “inhibition of tumor growth compared to isotype control” value in the assay on A549 cells (A549 xenograft, SCID mice) is recorded as “significantly inhibited tumor growth”. Moreover, in assay [1], the “Inhibition of CHO-K1 gel contraction” value is “Yes” and the “inhibition of CHO-hu α11-mediated collagen gel contraction” value is “inhibited CHO-hu α11-mediated collagen gel contraction”.
